Experimental data published in PMC8872793.

Target: Mtb UvrD1 WT (Mycobacterium tuberculosis H37Rv, UniProt P9WMQ1 1-771)
Test: tryptophan fluorescence dissociation kinetics

Mtb UvrD1 WT, sequence (P9WMQ1 whole entry): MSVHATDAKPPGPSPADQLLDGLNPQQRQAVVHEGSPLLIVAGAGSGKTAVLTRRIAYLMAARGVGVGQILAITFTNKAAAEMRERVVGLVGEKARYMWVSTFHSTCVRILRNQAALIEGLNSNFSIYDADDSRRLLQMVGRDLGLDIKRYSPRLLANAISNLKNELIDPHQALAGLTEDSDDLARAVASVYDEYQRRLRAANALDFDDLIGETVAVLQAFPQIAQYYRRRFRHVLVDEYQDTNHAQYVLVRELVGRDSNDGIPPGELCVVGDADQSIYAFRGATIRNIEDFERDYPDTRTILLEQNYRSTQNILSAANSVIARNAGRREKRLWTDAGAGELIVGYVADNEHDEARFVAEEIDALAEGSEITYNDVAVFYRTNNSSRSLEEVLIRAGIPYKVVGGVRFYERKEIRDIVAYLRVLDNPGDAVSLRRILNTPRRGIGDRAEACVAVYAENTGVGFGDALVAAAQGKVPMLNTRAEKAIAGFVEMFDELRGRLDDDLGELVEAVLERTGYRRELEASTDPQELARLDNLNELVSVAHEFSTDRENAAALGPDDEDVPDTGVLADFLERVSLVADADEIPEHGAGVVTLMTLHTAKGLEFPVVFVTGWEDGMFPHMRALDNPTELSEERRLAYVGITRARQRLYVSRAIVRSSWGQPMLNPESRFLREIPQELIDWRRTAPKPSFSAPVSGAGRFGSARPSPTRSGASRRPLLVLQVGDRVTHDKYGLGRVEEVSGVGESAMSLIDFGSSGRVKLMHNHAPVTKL

B1: (dT)100 (ssDNA)
DNA: TTTTTTTTTTTTTTTTTTTTTTTTTTTTTTTTTTTTTTTTTTTTTTTTTTTTTTTTTTTTTTTTTTTTTTTTTTTTTTTTTTTTTTTTTTTTTTTTTTTT
Does B1 bind?
Result: binds
